Paper PMC6393240, “DNA replication initiation in Bacillus subtilis: structural and functional characterization of the essential DnaA–DnaD interaction” (Nucleic Acids Research, 2018)
Changes are numbered by the printed parent chain. Names may count otherwise.

T1: DnaD DDBH2 domain (residues 129–232) of Bacillus subtilis DnaD (Bacillus subtilis, UniProt P39787 129-232)
T1 construct: DnaD, Bacillus subtilis, DDBH2 domain, residues 129-232; A residual N-terminal Gly-Ser-His remains after thrombin cleavage; 15N-labelled in the reverse titration; also called C-terminal DDBH2 domain; not shown: His tag, N-terminal, cleaved
T1 sequence (looked up): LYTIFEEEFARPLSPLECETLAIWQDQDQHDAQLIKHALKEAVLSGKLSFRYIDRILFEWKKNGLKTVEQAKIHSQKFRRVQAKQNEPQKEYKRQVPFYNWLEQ

B1: DnaA(N191C/A198C) (natural protein, Bacillus subtilis, UniProt P05648 1-446, looked up)
chain: MENILDLWNQALAQIEKKLSKPSFETWMKSTKAHSLQGDTLTITAPNEFARDWLESRYLHLIADTIYELTGEELSIKFVIPQNQDVEDFMPKPQVKKAVKEDTSDFPQNMLNPKYTFDTFVIGSGNRFAHAASLAVAEAPAKAYNPLFIYGGVGLGKTHLMHAIGHYVIDHNPSAKVVYLSSEKFTNEFICSIRDNKCVDFRNRYRNVDVLLIDDIQFLAGKEQTQEEFFHTFNTLHEESKQIVISSDRPPKEIPTLEDRLRSRFEWGLITDITPPDLETRIAILRKKAKAEGLDIPNEVMLYIANQIDSNIRELEGALIRVVAYSSLINKDINADLAAEALKDIIPSSKPKVITIKEIQRVVGQQFNIKLEDFKAKKRTKSVAFPRQIAMYLSREMTDSSLPKIGEEFGGRDHTTVIHAHEKISKLLADDEQLQQHVKEIKEQLK
notes: DnaA, Bacillus subtilis, double cysteine mutant N191C/A198C; also called DnaA(N191C/A198C) mutant protein
B2: DnaA(A198C), labelled with Cy3B or Atto647N (natural protein, Bacillus subtilis, UniProt P05648 1-446, looked up)
chain: B1 chain with C191N
modifications: Cy3B-maleimide or Atto647N-maleimide on the single cysteine A198C (mixed 1:1:2 Cy3B-labelled: Atto647N labelled: un-labelled)
notes: DnaA, Bacillus subtilis, single cysteine mutant A198C; Printed once as DnaA^N198C and once as DnaA^A19C in the methods (misprints)
B3: DnaD, full length, Bacillus subtilis (natural protein)
chain: MKKQQFIDMQEQGTSTIPNLLLTHYKQLGLNETELILLLKIKMHLEKGSYFPTPNQLQEGMSISVEECTNRLRMFIQKGFLFIEECEDQNGIKFEKYSLQPLWGKLYEYIQLAQNQTQERKAEGEQKSLYTIFEEEFARPLSPLECETLAIWQDQDQHDAQLIKHALKEAVLSGKLSFRYIDRILFEWKKNGLKTVEQAKIHSQKFRRVQAKQNEPQKEYKRQVPFYNWLEQ
B4: Truncated DnaD DDBH2 domain (residues 129–196) (domain or fragment, Bacillus subtilis, UniProt P39787 129-196, looked up)
chain: LYTIFEEEFARPLSPLECETLAIWQDQDQHDAQLIKHALKEAVLSGKLSFRYIDRILFEWKKNGLKTV
notes: DnaD, Bacillus subtilis, DDBH2 domain truncated at the C-terminus, residues 129-196; Made from the DDBH2 (129-232) construct by Q5 site directed mutagenesis; A residual N-terminal Gly-Ser-His remains after thrombin cleavage; also called DnaD DDBH2 domain truncation; truncated DDBH2; not shown: His tag, N-terminal, cleaved
B5: DnaD196, truncated DnaD lacking the C-terminal residues 197–232 (domain or fragment)
chain: MKKQQFIDMQEQGTSTIPNLLLTHYKQLGLNETELILLLKIKMHLEKGSYFPTPNQLQEGMSISVEECTNRLRMFIQKGFLFIEECEDQNGIKFEKYSLQPLWGKLYEYIQLAQNQTQERKAEGEQKSLYTIFEEEFARPLSPLECETLAIWQDQDQHDAQLIKHALKEAVLSGKLSFRYIDRILFEWKKNGLKTV
B6: DnaA domain I (residues 1–81) of Bacillus subtilis DnaA (domain or fragment, UniProt P05648 1-81, looked up)
chain: MENILDLWNQALAQIEKKLSKPSFETWMKSTKAHSLQGDTLTITAPNEFARDWLESRYLHLIADTIYELTGEELSIKFVIP
notes: DnaA, Bacillus subtilis, domain I, residues 1-81; After thrombin cleavage a residual N-terminal Gly-Ser-His leader remains; 15N-labelled (or 13C/15N) where it is the observed partner in NMR, unlabelled in the reverse titration; also called N-terminal domain I of DnaA; DnaA NTD; not shown: His tag, N-terminal, cleaved

What was measured:
[1] = target: the molecule itself; assay: cross-linking; BMOE (2 mM) cross-linking of 1.5 μM DnaA(N191C/A198C) with 3 nM 819 bp DNA, 2 mM ATP, 37°C; SDS-PAGE, Coomassie
[2] = target: the molecule itself; assay: FRET or BRET; single-molecule FRET, confocal, room temperature; 1.5 μM DnaA (1:1:2 Cy3B-labelled: Atto647N labelled: un-labelled) with 3 nM 819 bp oriC DNA fragment and 2 mM ATP, 37°C 15 min; measured at ∼100 pM DnaA in imaging buffer
[3] = target: DnaA(N191C), labelled with Cy3B or Atto647N (Bacillus subtilis) (UniProt P05648)
[4] = target: B6; assay: NMR titration; 1H-15N HSQC, chemical shift perturbations; unlabelled DnaD DDBH2 (129-232 or 129-196) titrated into 15N-labelled DnaA domain I (100 μM) up to 8:1 excess; 50 mM potassium phosphate pH 7.4, 100 mM NaCl; 25°C; KD averaged over five residues; settings: both partners purified
[5] = target: DnaA(N191C), labelled with Cy3B or Atto647N (Bacillus subtilis) (UniProt P05648); remark: listed apart in the source
[6] = target: T1, DnaD DDBH2 domain (residues 129–232) of …; assay: NMR titration; 1H-15N HSQC, chemical shift perturbations; unlabelled DnaD DDBH2 (129-232 or 129-196) titrated into 15N-labelled DnaA domain I (100 μM) up to 8:1 excess; 50 mM potassium phosphate pH 7.4, 100 mM NaCl; 25°C; KD averaged over five residues; settings: both partners purified
[7] = target: T1, DnaD DDBH2 domain (residues 129–232) of …; assay: NMR titration; reverse titration: unlabelled DnaA domain I titrated into 15N-labelled DnaD DDBH2 (100 μM) up to 8:1 excess; 50 mM potassium phosphate pH 7.4, 100 mM NaCl; 25°C; KD averaged over five residues; settings: both partners purified

B1: binds [1].

B2: binds [2].

B3 was tested, and the single-molecule FRET of Cy3B/Atto647N-labelled DnaA–DNA filaments: apparent FRET efficiency E* with DnaD (24 μM) added before or after DnaA; E* ∼0.7 without DnaD [3] was 0.5.

B4: binds [4].

B5 was tested, and the single-molecule FRET of labelled DnaA–DNA filaments: apparent FRET efficiency E* with DnaD196 (24 μM); E* ∼0.7 in its absence [5] was 0.5.

B6 showed a Kd [6] of 768 ± 168 µM and a Kd [7] of 665 ± 251 µM.
